Test results from PMC6791878, “Evaluation of integrin αvβ6 cystine knot PET tracers to detect cancer and idiopathic pulmonary fibrosis” (Nature Communications, 2019).
Where “and” joins values, the source holds several entries; their conditions need not be identical. Equal values may be shown once. Read-outs that look alike come from different tables or passages of the source.

Columns and labels:
clinical = settings: human, iv, total radioactivity
Experimental: (§3) The administered dose was 55.5–96.2MBq (1.5–2.6 mCi). The scan (6 bed positions, 2 min bed^−1) covered an area that included the top of the skull to the middle of the femur. OSEM was applied for reconstruction. […] The CT scan (140 kV, 35 mA, pitch of 1:1, layer of 5 mm thickness; layer spacing of 3 mm, 512*512 matrix, field of view of 70 cm) also covered the top of the skull to the middle of the femur. […] Immediately upon completion of the first scan, the second whole-body static PET data was acquired. Sequentially, multiple whole-body static PET scans were acquired, one by one, from 0 to 75 min.
(§4) Upon co-registration of the PET and CT images, the CT images were used to determine regions of interest for the organs or tissues reported in the manuscript. These ROIs were applied to the PET images of the brain, pituitary gland, breast, lower and upper large intestine, small intestine, stomach, pancreas, heart wall, liver, lung, muscle, red marrow, bone, skin, and thyroid gland. For high uptake organs such as the kidneys, bladder and for the whole body, threshold-based segmentation of PET images were used to determine a close-fitting ROI around the entire organ or whole body. In order to determine accuracy, these PET-derived ROIs were compared to the CT overlay for a close match.

[1] = system: integrin αvβ6-positive A431 xenografts; assay: Static small animal PET, integrin αvβ6-positive tumor model; assay type: in vivo, mouse; settings: microPET 1 hr, individual mice, listed as Ro1-MG NODAGA Ga-68
[2] = as above; assay type: in vivo, mouse; settings: female, athymic nude (Nu/Nu), mouse, in vivo, iv, 100 uCi, total radioactivity, PET, 1 h p.i., average ± SD, n = 3
Text: (§1) Eight planes were acquired in the coronal section.
(§2) Supplementary Figure 5. [18F]FP-R01-MG-F2 Static PET Imaging. (A) Representative PET images of nu/nu mice bearing in integrin αvβ6-positive A431 xenografts (left) and integrin αvβ6-negative 293 xenograft (right) models following injection of […] [18F]FP-R01-MG-F2. Location of tumor and kidneys are indicated by the letters T and K.

[3] = system: integrin αvβ6-positive A431 xenografts; assay: as above; assay type: in vivo, mouse
Text: as §1, §2

[4] = system: pancreatic, cervical and lung cancer; settings: one patient, Fig 4C
Experimental: as §3, §4

[5] = microPET 1 hr, individual mice, listed as Ro1-MG NODAGA Ga-68

## CC[C@H](C)[C@@H]1NC(=O)[C@@H](NC(=O)CNC(=O)CCC(C(=O)O)N2CCN(CC(=O)O)CCN(CC(=O)O)CC2)CSSC[C@@H]2NC(=O)[C@H](C)NC(=O)CNC(=O)[C@@H]3CCCN3C(=O)[C@@H]3CSSC[C@@H](C(=O)NCC(N)=O)NC(=O)[C@H](Cc4ccc(O)cc4)NC(=O)CNC(=O)[C@H](CC(N)=O)NC(=O)CNC(=O)[C@H](CCCNC(=N)N)NC(=O)[C@H](CSSC[C@H](NC(=O)[C@H](CCCNC(=N)N)NC(=O)[C@H](Cc4ccccc4)NC(=O)[C@H](CC(C)C)NC(=O)[C@H](CC(C)C)NC(=O)[C@H]([C@@H](C)O)NC(=O)CNC(=O)[C@H](CC(C)C)NC(=O)[C@H](CC(=O)O)NC(=O)[C@H]([C@@H](C)O)NC(=O)[C@H](CCCNC(=N)N)NC(=O)CNC(=O)[C@H](CC(N)=O)NC(=O)[C@H](CC(C)C)NC1=O)C(=O)N[C@@H](CCCNC(=N)N)C(=O)N[C@@H](CCCNC(=N)N)C(=O)N[C@@H](CC(=O)O)C(=O)N[C@@H](CO)C(=O)N[C@@H](CC(=O)O)C(=O)N3)NC(=O)[C@H]([C@@H](C)CC)NC2=O (stereo partly shown) [[^68Ga]NODAGA-R01-MG, metal not drawn]
clinical; both, kidney, average SUVmean, ~1 h p.i., cancer patients
  SUV: 19.9 ± 2.23 SUV
clinical; both, normal pancreas, SUVmean, n = 5, ± S.D.
  SUV: 1.79 ± 0.47 SUV
clinical; both, pancreatic tumour, average SUVmean, pancreatic cancer, pancreatic cancer patients
  SUV: 4.2 ± 0.1 SUV
clinical; both, small intestines, average SUVmean, cancer patients
  SUV: 7.06 ± 2.74 SUV
clinical; both, stomach, average SUVmean, cancer patients
  SUV: 8.87 ± 6.52 SUV
clinical; head of pancreas, SUVmean, one pancreatic cancer patient (Fig 4d)
  SUV: ~3.1 SUV
clinical; lung tumor, SUVmean, patient, squamous cell carcinoma of the lung
  SUV: 2.2 SUV
clinical; tail of pancreas, SUVmean, one pancreatic cancer patient (Fig 4d)
  SUV: ~4.4 SUV
clinical; tumor in tail of pancreas, 2.2 mCi, SUVmean, patient, ~50 minutes p.i.
  SUV: 4.3 SUV
[1]; source data of Table 3
  Tumor avb6(+): 3.142 and 2.463 and 2.614 and 2.906
[1]
  Liver: 0.7389 and 1.216 and 1.257 and 1.6013
[2]; αvβ6 (+), read-out: Tumor
  tissue uptake at 1 h: 2.78 ± 0.3 %ID/g
[2]; read-out: Kidney
  tissue uptake at 1 h: 30.1 ± 5.51 %ID/g
[2]; read-out: Liver
  tissue uptake at 1 h: 1.2 ± 0.35 %ID/g
[2]; read-out: Muscle
  tissue uptake at 1 h: 0.589 ± 0.124 %ID/g
[2]; read-out: T:M Ratio (tumor-to-muscle)
  tissue to tissue ratio at 1 h: 4.86 ± 1.04
[3]; PET, 1 h p.i., average ± SD, n = 3
  Muscle: 0.6 ± 0.1 %ID g^−1
[3]; [5]
  Kidney: 34.6175 and 26.042 and 24.5731 and 34.9763
  Muscle: 0.5495 and 0.6119 and 0.4496 and 0.7461
[4]; 9 min p.i.
  ROI uptake Bl (bladder): 1.885
  ROI uptake Bn (osteogenic cells): 0.4959
  ROI uptake Br (brain): 0.05775
  ROI uptake Brs (breast): 0.428
  ROI uptake HC (heart contents): 1.158
  ROI uptake HW (heart wall): 0.7507
  ROI uptake LLI (lower large intestine): 1.4
  ROI uptake Ln (lung): 0.3091
  ROI uptake Lv (liver): 0.8628
  ROI uptake Ms (muscle): 0.6964
  ROI uptake Pn (pancreas): 1.576
  ROI uptake Pt (pituitary gland): 2.269
  ROI uptake RM (red marrow): 0.2412
  ROI uptake SI (small intestine): 6.974
  ROI uptake Sk (skin): 0.09851
  ROI uptake Sp (spleen): 0.7065
  ROI uptake St (stomach): 2.524
  ROI uptake TB (total body): 0.6998
  ROI uptake Tm (thymus): 0.7337
  ROI uptake Tr (thyroid): 1.94
  ROI uptake ULI (upper large intestine): 1.923
[4]; 22 min p.i.
  ROI uptake Bl (bladder): 6.4
  ROI uptake Bn (osteogenic cells): 0.4058
  ROI uptake Br (brain): 0.03902
  ROI uptake Brs (breast): 0.5151
  ROI uptake HC (heart contents): 0.7844
  ROI uptake HW (heart wall): 0.4761
  ROI uptake LLI (lower large intestine): 1.495
  ROI uptake Ln (lung): 0.3044
  ROI uptake Lv (liver): 0.7375
  ROI uptake Ms (muscle): 0.6868
  ROI uptake Pn (pancreas): 1.214
  ROI uptake Pt (pituitary gland): 1.986
  ROI uptake RM (red marrow): 0.1015
  ROI uptake SI (small intestine): 7.153
  ROI uptake Sk (skin): 0.09365
  ROI uptake Sp (spleen): 0.5971
  ROI uptake St (stomach): 2.337
  ROI uptake TB (total body): 0.6751
  ROI uptake Tm (thymus): 0.7375
  ROI uptake Tr (thyroid): 0.7922
  ROI uptake ULI (upper large intestine): 1.432
[4]; 36 min p.i.
  ROI uptake Bl (bladder): 8.426
  ROI uptake Bn (osteogenic cells): 0.4395
  ROI uptake Br (brain): 0.03531
  ROI uptake Brs (breast): 0.6278
  ROI uptake HC (heart contents): 0.722
  ROI uptake HW (heart wall): 0.4798
  ROI uptake LLI (lower large intestine): 1.238
  ROI uptake Ln (lung): 0.3094
  ROI uptake Lv (liver): 0.6906
  ROI uptake Ms (muscle): 0.7579
  ROI uptake Pn (pancreas): 1.296
  ROI uptake Pt (pituitary gland): 2.22
